Reference: article PMC10074561

Legend:
[1] = target: TASK3 (UniProt Q9NPC2); assay: fluorescence polarisation; fluorescence anisotropy; 14-3-3 titrated in the presence of 10 nM labelled TASK3; KD fitted here with a one-to-one equilibrium model; data (Dataset S1) from earlier work
[2] = target: TASK3 (UniProt Q9NPC2); assay: fluorescence polarisation; 2D fluorescence anisotropy titrations of 14-3-3 at varying concentrations of fusicoccin-A, 10 nM labelled TASK3; fitted here with a ternary equilibrium model, KD,I fixed at 4.05 μM; data (Dataset S2) published before

Sequence of UniProt Q9NPC2 (Q9NPC2 whole entry): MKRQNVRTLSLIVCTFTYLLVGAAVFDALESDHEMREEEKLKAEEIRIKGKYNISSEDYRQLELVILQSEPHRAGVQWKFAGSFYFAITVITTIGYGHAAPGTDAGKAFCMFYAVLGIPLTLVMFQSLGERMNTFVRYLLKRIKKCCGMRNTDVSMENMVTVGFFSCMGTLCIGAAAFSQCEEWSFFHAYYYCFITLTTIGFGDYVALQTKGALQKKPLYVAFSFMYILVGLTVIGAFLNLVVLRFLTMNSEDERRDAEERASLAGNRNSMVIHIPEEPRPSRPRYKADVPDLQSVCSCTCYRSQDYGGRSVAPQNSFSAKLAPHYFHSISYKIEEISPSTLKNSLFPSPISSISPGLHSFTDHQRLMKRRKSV

## 14-3-3 protein (from UniProt P31947 1-248) (natural protein)
[1]
  Kd: 4.05 µM
[2]
  cooperativity factor α with fusicoccin-A: 1340
